US12356911B2, “Group of UDP-glycosyltransferase for catalyzing carbohydrate chain elongation and application thereof” (GSYNBIOT (SHANGHAI) CO., LTD, priority 2017, dated 2025)

Experiments:
Format in all cases: biochemical
[1] = In vitro transglycosylation at C-6, Rg1 as glycosyl acceptor, UDP-xylose as donor; conditions: crude enzyme (E. coli lysate supernatant); TLC and HPLC, FIG. 7-9
[2] = In vitro transglycosylation at C-3, Rh2 as glycosyl acceptor, UDP-glucose as donor; conditions: crude enzyme (E. coli lysate supernatant); TLC, FIG. 13, FIG. 15
Source text: (§1) Cell lysate of recombinant E. coli with empty vector pET28a was used as a control.

[3] = In vitro transglycosylation at C-20, CK as glycosyl acceptor, UDP-glucose as donor; conditions: crude enzyme (E. coli lysate supernatant); TLC/HPLC, FIG. 2, 3, 12, 16
Source text: as §1
As shown in FIG. 16: Protopanaxadiol Ginsenoside CK is used as a glycosyl acceptor, and UDP-glucose is used as a glycosyl donor.

[4] = In vitro transglycosylation at C-20, Rd as glycosyl acceptor, UDP-glucose as donor; conditions: crude enzyme (E. coli lysate supernatant); TLC/HPLC, FIG. 2, 3, 11
Source text: as §1

Molecule	product formation from Rg1 and UDP-xylose (notoginsenoside R1) [1]	product formation from Rh2 and UDP-glucose (Rg3) [2]	product formation from CK and UDP-glucose (Gypenoside LXXV) [3]	product formation from Rd and UDP-glucose (Rb1) [4]
GT29-4: Ginseng UDP-glycosyltransferase, 446 amino acids, SEQ ID NO: 12 (protein, misc_feature - GT29-4; Panax ginseng) MDNQEGRISIALLPFLAHGHISPFFELAKHLSKRNCNIFLCSTPINLSSIKNRISDKDSSASIKLVELHLPSSPDLPPHYHTTNGLPSHLMVPLRNAFETAAPTFSEILKTLNPDLLIYDFNPSWAPEIASSHNIPAVCFIIGGAASFSMSLHSFKNPGEKYPFLDFDDNSNITPEPPSADNMKLLLDFMTCFERSCDIILIKSFRELEGKYFDFYSTLSDKTLVPVGPLVQDPMGHNEDPKTEQFINWLDKRAESTVVFVCFGSEYFLSNEELEEVAIGLEISMVNFIWAVRLIEGEKKGVLPEGFVQRVGDRGLVVEGWAPQARILGHSSTGGFVSHCGWSSITESMKFGVPVIAMARHLDQPLNGKLAAEVGVGMEVVRDENGKYKREGIAEVIRKVVVEKSGEVMRRKARELSEKMKEKGEEEIDRAVEELVQICKKKKDAQ	can catalyze the formation of Notoginsenoside RI			
PNUGT29-5: Panax notoginseng glycosyltransferase, 447 amino acids, SEQ ID NO: 47 (protein, Panax notoginseng) MDIEKGRISIVMLPFLAHGHISPFFELAKHLSKRNCNIFLCSTPINLSSIKNRVSDKDSSASIKLVELHLPSSPDLPPQYHTTNGLPSHLMVPLKNAFETVGPTFSEILKTLDPDLLIYDFNPSWAPEIALSHNIPAVYFLTSAAATSSVALRALKNPGEKYPFPDFYDNSNITPEPPSADKMKLFHDFVACFKRSCDIILIKSFRELEGKYIDLLSTLSKKTLVPVGPLVQDPLGHDEDPKTGHLINWLDKRAESTVVFVCFGSEYFPSNEELEEVAIGLEISMVNFILAVRFLEGEKKGVLPEGFVQRVGDRGLVVEGWAPQARILGHSSTGGFVSHCGWSSIMESVKFGVPVIAMARHLDQPLNAKLAAEVGVGMEVVRDENGKYTREAIAEVIRKVVMEKNGEVIRRKARELSDKMKEKGEQEIGRAVEELVQICKMMKDAQY		can catalyze the extension of a glucosyl at the C-3 glycosyl of Rh2 to generate Rg3	can catalyze the extension of a glucosyl at the C-20 glycosyl to generate Gypenoside LXXV	can catalyze the extension of a glucosyl at the C-20 glycosyl of Rd to generate Rb1
PNUGT29-7: Panax notoginseng glycosyltransferase, 447 amino acids, SEQ ID NO: 51 (protein, Panax notoginseng) MDIEKGRISIVMLPFLAHGHISPFFELAKHLSKRNCNIFLCSTPINLSSIKNRVSDKDSSASIKLVELHLPSSPDLPPQYHTTNGLPSHLMVPLKNAFETVGPTFSEILKTLDPDLFIYDFNPSWAPEIALSHNIPAVYFLTSAAATSSVALRALKNPGEKYPFPDFYDNSNITPEPPSADKMKLFHDFVACFKRSCDIILIKSFRELEGKYIDLLSTLSKKTLVPVGPLVQDPLGHDEDPKTGHLINWLDKRAESTVVFVCFGSEYFPSNEELEEVAIGLEISMVNFILAVRFLEGEKKGVLPEGFVQRVGDRGLVVEGWAPQARILGHSSTGGFVSHCGWSSIMESVKFGVPVIAMARHLDQPLNAKLAAEVGVGMEVVRDENGKYTREAIAEVIRKVVMEKNGEVIRRKARELSDKMKEKGEQEIGRAVEELVQICKMKKDAQY		can catalyze the extension of a glucosyl at the C-3 glycosyl of Rh2 to generate Rg3	can catalyze the extension of a glucosyl at the C-20 glycosyl to generate Gypenoside LXXV	can catalyze the extension of a glucosyl at the C-20 glycosyl of Rd to generate Rb1
PNUGT29-9: Panax notoginseng glycosyltransferase, 447 amino acids, SEQ ID NO: 55 (protein, Panax notoginseng) MDIEKGRISIVMLPFLAHGHISPFLELAKHLSKRNCNIFLCSTPINLSSIKNRVSDKDSSASIKLVELHLPSSPDLPPQYHTTNGLPSHLMVPLKNAFETVGPTFSEILKTLDPDLLIYDFNPSWAPEIALSHNIPAVYFLTSAAATSSVALRALKNPGEKYPFPDFYDNSNITPEPPSADKMKLFHDFVACFKRSCDIILIKSFRELEGKYIDLLSTLSKKTLVPVGPLVQDPLGHDEDPKTGHLINWLDKRAESTVVFVCFGSEYFPSNEELEEVAIGLEISMVNFILAVRFLEGEKKGVLPEGFVQRVGDRGLVVEGWAPQARILGHSSTGGFVSHCGWSSIMESVKFGVPVIAMARHLDQPLNAKLAAEVGVGMEVVRDENGKYKREAIAEVIRKVVMEKNGEVIRRKARELSEKMKETGEQEIGRAVEELVQICKMKKDAQY		can catalyze the extension of a glucosyl at the C-3 glycosyl of Rh2 to generate Rg3	can catalyze the extension of a glucosyl at the C-20 glycosyl to generate Gypenoside LXXV	can catalyze the extension of a glucosyl at the C-20 glycosyl of Rd to generate Rb1
PNUGT29-8: Panax notoginseng glycosyltransferase, 447 amino acids, SEQ ID NO: 53 (protein, Panax notoginseng) MDIEKGRISIVMLPFLAHGHISPFFELAKHLSKRNCNIFLCSTPINLSSIKNRVSDKDSSASIKLVELHLPSSPDLPPQYHTTNGLPSHLMVPLKNAFETVGPTFSEILKTLDPDLLIYDFNPSWAPEIALSHNIPAVYFLTSAAATSSVALRALKNPGEKYPFPDFYDNSNITPEPPSADKMKLFHDFVACFKRSCDIILIKSFRELEGKYIDLLSTLSKKTLVPVGPLVQDPLGHDEDPKTGHLINWLDKRAESTVVFVCFGSEYFPSNEELEEVAIGLEISMVNFILAVRFLEGEKKGVLPEGFVQRVGDRGLVVEGWAPQARILGHSSTGGFVSHCGWSSIMESVKFGVPVIAMARHLDQPLNAKLAAGVGVGMEVVRDENGKYKREAIAEVIRKVVMEKNGEVIRRKARELSEKMKETGEQEIGRAVEELVQICKMKKDAQY		can catalyze the extension of a glucosyl at the C-3 glycosyl of Rh2 to generate Rg3	can catalyze the extension of a glucosyl at the C-20 glycosyl to generate Gypenoside LXXV	can catalyze the extension of a glucosyl at the C-20 glycosyl of Rd to generate Rb1
PNUGT29-6: Panax notoginseng glycosyltransferase, 447 amino acids, SEQ ID NO: 49 (protein, Panax notoginseng) MDIEKGRISIVMLPFLAHGHISPFFELAKHLSKRNCNIFLCSTPINLSSIKNRVSGKDSSASIKLVELHLPSSPDLPPQYHTTNGLPSHLMVPLKNAFETVGPTFSEILKTLDPDLLIYDFNPSWAPEIALSHNIPAVYFLTSAAATSSVALRALKNPGEKYPFPDFYDNSNITPEPPSADKMKLFHDFVACFKRSCDIILIKSFRELEGKYIDLLSTLSKKTLVPVGPLVQDPLGHDEDPKTGHLINWLDKRAESTVVFVCFGSEYFPSNEELEEVAIGLEISMVNFILAVRFLEGEKKGVLPEGFVQRVGDRGLVVEGWAPQARILGHSSTGGFVSHCGWSSIMESVKFGVPVIAMARHLDQPLNAKLAAEVGVGMEVVRDENGKYTREAIAEVIRKVVMEKNGEVIRRKARELSDKMKEKGEQEIGRAVEELVQICKMKKDAQY		can catalyze the extension of a glucosyl at the C-3 glycosyl of Rh2 to generate Rg3	can catalyze the extension of a glucosyl at the C-20 glycosyl to generate Gypenoside LXXV	can catalyze the extension of a glucosyl at the C-20 glycosyl of Rd to generate Rb1
